Assay: yeast display, Sf9 membrane polyspecificity reagent, FACS + sequencing; frameworks hold sequencing errors
Method in brief: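 A synthetic nanobody library was expressed on Saccharomyces cerevisiae BJ5465 by galactose induction for 36–48 hours. The library was stained for 1 hour at 4 °C with 10% biotinylated, detergent-solubilized Sf9 membrane reagent and enriched with streptavidin microbeads before FACS. Low and high (top ~1%) gates were set on anti-HA fluorescence for expression and streptavidin fluorescence for reagent binding, and each polyreactivity label reflects the gate of origin.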

Row | Sequence | polyreactivity (PSR sort gate)
1 | QVQLVESGGGLVQAGGSLRLSCAASGFTFDRNAMGWYRQATWKERELVAAITWTGGSTYYADSVKGRFTISRDNAKNTVYLQMNSLKPEDTAVYYCAATLPYSRGWFYYWGQGTQVTVSS | high polyreactivity
2 | QVQLVESGGGLVQAGGSLRLSCAASGFTFDRYAMGWYRQAPGKERELVAAISRSGASTYYADSVKGRFTISRDNAKNTVYLQMNSLKPDDTAVYYCAAKQRTKGDYWGQGTQVTVSS | high polyreactivity
3 | QVQLVESGGGLVQAGGSLRLSCAASGFTFDRYTMGWYRQAPGKEWELVAVIRRGGSTYYADSVKGRFTISRDNAKNTVYLQMNSLKPEDTAVYYCNALSALAVEDGYWGQGTQVTVSS | low polyreactivity
4 | QVQLVESGGGLVQAGGSLRLSCAASGFTFDSNAMGWYRQAPGKERELGAAISKRGGSTYYADSVKGRFTISRDNAKNTVYLQMNSLKPEDTAVYYCAADNYNSGGTRHMYYWGQGTQVTVSS | high polyreactivity
5 | QVQLVESGGGLVQAGGSLRLSCAASGFTFDVYAMGWYRQAPGKERELVATITWSGGSTTYADSVKGRFTISRDNAKNTVYLQMNSLKPEDTAVYYCAADRSVQVTFDYWGQGTQVTVSS | low polyreactivity
6 | QVQLVESGGGLVQAGGSLRLSCAASGFTFDWYAMGWSRQAPGKERELVAAISSSGTSRYYADSVKGRFTISRDNAKNTVYLQMNSLKPEDTAVYYCAARWYYVTPLRRYGYWGQGTQVTVSS | high polyreactivity
7 | QVQLVESGGGLVQAGGSLRLSCAASGFTFDYYALGWYRQAPGKERELVAAISRGGSTYYADSVKGRFTISRDNGKNTFYLQMNSLKPEDTAVYYCAVSAGKRRLDYWGQGTQVTVSS | high polyreactivity
8 | QVQLVESGGGLVQAGGSLRLSCAASGFTFDYYAMGWYRQAPGKERELVAAISVSDSSTYYADSVKGRFTISRDNAKNTGDLQMNSLKPEDTAVYYCAAEYYVGFTYRYEYWGQGTQVTVSS | low polyreactivity
9 | QVQLVESGGGLVQAGGSLRLSCAASGFTFDYYAMGWYRQAPGKERELVASITFIGGNTNYADSVKGRFTISRDNAKNTVYLQMNSLKPEDTAVYYCAADFPWDYRYWFEYWGQGTQVTVSS | low polyreactivity
10 | QVQLVESGGGLVQAGGSLRLSCAASGFTFEENAMGWYRQAPGKERELVAAINWSGGNTYYADSVKGRFTISRDNAKNTVYLQMNSLKPEDTAVYYCAADSPRYYYWVGPYYGYDYWGQGTQVTVSS | high polyreactivity
11 | QVQLVESGGGLVQAGGSLRLSCAASGFTFEGNAMGWYRQAPGKERELVAAISSNGGRTYYADSVKGRFTISRDNAKNTVYLQMNSLKPEDTAVYYCNALRAYSGPDYDYYHGRRYDYWGQGTQVTVSS | low polyreactivity
12 | QVQLVESGGGLVQAGGSLRLSCAASGFTFEGYAMGWYRQAPGKERELVASISSGGGTNYADSVKGRFTISRDNAKNTVYLQMNSLKPEDTAVYYCAARAYPYFWTGQKLSRFGYWGQGTQVTVSS | high polyreactivity
13 | QVQLVESGGGLVQAGGSLRLSCAASGFTFEIYTMGWYRQAPGKERELVAAISTGGNTKYADSVKGRFTISRDNAKNTVYLQMNSLKPEDTAVYYCAKGRKPGYYYWGQGTQVTVSS | high polyreactivity
14 | QVQLVESGGGLVQAGGSLRLSCAASGFTFELYDMGWYRQAPGKERELVARITRSGGSTNYADSVKGRFTISRDNAKNTVYLQMNSLKPEDTAVYYCAAKSPLFGLTSYPGPDDSWGQGTQVTVSS | low polyreactivity
15 | QVQLVESGGGLVQAGGSLRLSCAASGFTFERYSMGWYRQAAGKEMELVASISRRSGRTSYADSVKGRFTISRDNAKNTVYLQMKSLIPEDTAVYYCAVDDAYPDGYDYWGQGTQVTVSS | high polyreactivity
16 | QVQLVESGGGLVQAGGSLRLSCAASGFTFETNAMGWYRQAHGKERELVATITGGGSTNYADSVKGRFTISRDNAKNTVYLQMNSLKPEDTAVYYCNAVHEASYAGVDYWGQGTQVTVSS | low polyreactivity
17 | QVQLVESGGGLVQAGGSLRLSCAASGFTFFENAMGWYRQAPGKERELVAAIRKSGDRTYYADSVKGRFTISRDNAKNTVYLQMNSLKPEDTAVYYCAAPLSLRSSFGSWGQGTQVTVSS | high polyreactivity
18 | QVQLVESGGGLVQAGGSLRLSCAASGFTFFGYAMGWYRQEPGKERELVAAISTIDGDTYYADSVKGRFTISRDNAKNSFYFLMNSLKPEDTAVYYCAADDYIDGDDYWGQGTQVTVSS | low polyreactivity
19 | QVQLVESGGGLVQAGGSLRLSCAASGFTFFHYAMGWYIQAPGKERELVAAITRSGSSTYYADSVKGRFTISRDNAKNTVYLQMNSLKPEDTAVYYCAADYISRGGYTIEDYWGQGTQVTVSS | low polyreactivity
20 | QVQLVESGGGLVQAGGSLRLSCAASGFTFFIYAMGWYRQAPGKERELVAAISLSGTSTYYADSVKGRFTISRDNAKNSVYLQMNSLKPEDTAVYYCAKDGAYWTYYSGYDYWGQVTQVTVSS | low polyreactivity
21 | QVQLVESGGGLVQAGGSLRLSCAASGFTFFIYAMGWYRQAPGKERELVAAISWRGDRTYYADSVKGRFTISRDNAKNTVYLQMNSMKPEDTAVYYCAKSVWRRVYYARYDDRHNYWGQGTQVTVSS | high polyreactivity
22 | QVQLVESGGGLVQAGGSLRLSCAASGFTFFKYAMGWYRQAPGKERELVAAITRNGGRTYYADSVKGRFTISRDYAKNTVYLQMNSLKPEDTAVYYCNAASVNGGRDFDYWGQGTQVTVSS | high polyreactivity

Row | Sequence | polyreactivity (PSR sort gate)
23 | QVQLVESGGGLVQAGGSLRLSCAASGFTFFSNAMGWYRQAPGKERELVAAITSSGGSTYADSVKGRFTISRDNAKNTVYLQMNSLKPEDTAVYYCAAELYDYGDLYYSEYDYWGQGTQVTVSS | low polyreactivity
24 | QVQLVESGGGLVQAGGSLRLSCAASGFTFFTNAMGWYRKAPGKEREFVAAISGSGSRTYYADSVKGRFTISRDNAKNTVYLQMNSLIPEDTAVYYCAARVRGVYPFDYWGQGTQVTVSS | high polyreactivity
25 | QVQLVESGGGLVQAGGSLRLSCAASGFTFFTYAMGWYRQAPGKERELVAAITSGGSTNYADSVKGRFTISRDNAKNTVYLQMNSLKPEDTAVYYCATRAYSDATTFYGYQRSDSWGQGTQVTVSS | low polyreactivity
26 | QVQLVESGGGLVQAGGSLRLSCAASGFTFFVSAMGWYRQAPRKERELVAVITSGGTTNYADSVKGRFTISRDIAKKTVYLQMNSLKPEDTAVYYCNGRGEKRGYYYWGQGTQVSVSS | high polyreactivity
27 | QVQLVESGGGLVQAGGSLRLSCAASGFTFFYNAMGWYRQAPGKEREFVAAISGRGGTTYYADSVKGRFTISRDNAKNTVYLQMNSLKPEDTAVYYCNAGSSPIRQYYGQVWKKGGYWGQGTQVTVSS | high polyreactivity
28 | QVQLVESGGGLVQAGGSLRLSCAASGFTFGANVMGWYRQAPGKERELVAGITWSGDSTYYADSVKGRFTISRDNAKNTVYLQMNSLKPDDTAVYYCAADVYDGEYILDYDYWGQGTQVTVSS | low polyreactivity
29 | QVQLVESGGGLVQAGGSLRLSCAASGFTFGAYAMGWYRHAPGKERELVAAINRRGGSTYYADSVKGRFTISRENAKNTVYLQMKSLKPEDTAVYYCNAPFGYDYWGQGTQVTVSS | high polyreactivity
30 | QVQLVESGGGLVQAGGSLRLSCAASGFTFGAYAMGWYRQAPGKERELVAAITGSGGNTFYADSVKGRFTISRDNAKNSVYLEMNCLKTEDTAVYYCAKTWYPWSRYGYYRRYDSWGQGTQVTVSS | low polyreactivity
31 | QVQLVESGGGLVQAGGSLRLSCAASGFTFGDYAMGRYRPEPGKERELVAAISSGGNTNYADSVKGRFTISRDNAKHTVYLQMNRLKPEDTAVNNCAPRRQSKGYKLNYWGHGTQVTVSS | high polyreactivity
32 | QVQLVESGGGLVQAGGSLRLSCAASGFTFGFYAMGRYRQAPGKERELVARISYSGGSTYYADSVKGRFTISRDKAKNTVYLQMNSLKPEDTAVYYCNRGYRRLQEDYWGQGTQVTVSS | high polyreactivity
33 | QVQLVESGGGLVQAGGSLRLSCAASGFTFGFYAMGWYRQAPGKERELVAAISGSGGRTYYADSVKGRFTISRDNAKNTVYLQMNSLKPEDTAVYYCAARWQRKSNGDEDYWGQGTQVTVSS | high polyreactivity
34 | QVQLVESGGGLVQAGGSLRLSCAASGFTFGFYAMGWYRQAPGKERELVAAISKRGGSTYYADSVKGRFTISRDNAKNTVYLQMNSLKPEDTAVYYCAAVYTQSRGWEYDYWGQGTQVTVSS | high polyreactivity
35 | QVQLVESGGGLVQAGGSLRLSCAASGFTFGGNVMGWYRQAPGKERELVAAISSSGGSTYYADSVKGRFTISRDNAKNTVYLQMNSLKPEDTAVYYCAATTYGWWGYQYDYWGQGTQVTVSS | high polyreactivity
36 | QVQLVESGGGLVQAGGSLRLSCAASGFTFGGYAMGCYRQAPGKESELVAAISGRGGRTYYADSVKGRFTISRDNAKNTVYLQMNSLKPEDTAVYYCAAPTNHWTRLSGDYWGQGTQVTVSS | high polyreactivity
37 | QVQLVESGGGLVQAGGSLRLSCAASGFTFGGYAMGWYRQAPGKERELVARIRRSGGSTYYADSVKGRFTISRDNAKNTVYLQMNSLKPEDTAVYYCAAGYSRGQYRYNYWGQGTQVTVSS | high polyreactivity
38 | QVQLVESGGGLVQAGGSLRLSCAASGFTFGHYAMGWSRQAPGKERELVAAISKSGTRTYYADSVKGRFTISRDNAKNTVYLQMNSLKPEDTAVYYCATTAYNGYDHWGQGTQVTVSS | high polyreactivity
39 | QVQLVESGGGLVQAGGSLRLSCAASGFTFGLYAMGWYRQAPGKERELVAAITSGGRTYYADSVKGRFTISRDNAKNTVYFQMNSLNPEDSAVYYCNADFFNAYLWYPGYESGFDYWGQCTQVTVSS | low polyreactivity
40 | QVQLVESGGGLVQAGGSLRLSCAASGFTFGNNAMGWYRQAPGKERELVAGISRTGGRTYYADSVKGRYTISRDNAKNTVYFQMNSLKPEDTGVYYCNADSTLYTGYDYWGQGTQVTVSS | high polyreactivity
41 | QVQLVESGGGLVQAGGSLRLSCAASGFTFGNNGMGWYRQAPGKERELVATISWSGGSTYADSVKGRFTISRDNAKNTVDLQMNSLKPEDTAVYYCAARYFVYYLEVDYWGQGTQVTVSS | low polyreactivity
42 | QVQLVESGGGLVQAGGSLRLSCAASGFTFGNYAMGWYRQAQGKERELVDAISGSGGSTYYADSVKGRFTISRYNAKNTVYLQMNSLKPEDTAVYYCAARYWVTYWPDYYYWGQGTQVTVPS | high polyreactivity
43 | QVQLVESGGGLVQAGGSLRLSCAASGFTFGPYAMGWYRQAPGNEMELVAGITWSGASTYYADSVKGRFTISRDNAKNTVYLQMNSLNPEDSAVYYCARYYRLVSRYDYWGQGRQVTVSS | low polyreactivity

Source: the nanobody polyreactivity screen of Harvey et al. (2022)
